This assay deals with T1, human full length recombinant 17β-hydroxysteroid dehydrogenase type 10 protein (His tag) (human, UniProt Q99714 1-261).
T1 construct: 17β-hydroxysteroid dehydrogenase type 10, human, full length recombinant protein; The tetramer was not measured here; The His tag and 'full length' are stated only in the co-immunoprecipitation methods; The SPR reagent is described as human recombinant protein from the same supplier, with no catalogue number; also called 17β-HSD10; ERAB; source: bought: Fitzgerald (Fitzgerald Industries …)
T1 sequence (looked up): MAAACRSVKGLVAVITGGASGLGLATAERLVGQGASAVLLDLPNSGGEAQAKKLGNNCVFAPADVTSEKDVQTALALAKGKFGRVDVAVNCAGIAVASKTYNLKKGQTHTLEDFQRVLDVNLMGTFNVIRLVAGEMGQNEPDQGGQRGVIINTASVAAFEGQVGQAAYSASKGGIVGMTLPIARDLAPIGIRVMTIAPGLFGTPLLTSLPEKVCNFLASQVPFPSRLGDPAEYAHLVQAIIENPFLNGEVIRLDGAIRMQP
As to the kind of experiment: SPR; cypD captured (response 1.5 nm) on amine-coupled anti-cypD antibody; 17β-HSD10 at 6, 10, 30, 60 and 100 nM injected 10 min, dissociation 15 min; HEPES 10 mM pH 7.4 with 250 µg/ml BSA, 15 mM KCl, 0.1 mM MgCl2; 25 °C, 20 µl/min; reference channel without cypD subtracted; global fit, 1:1 Langmuir model with mass transport. Conditions: both partners purified. For orientation: In SPR one partner is held on a chip, and binding of the other changes the refractive index at the surface.

B1: human full length cyclophilin D protein (His tag) (enzyme)
chain: not shown
notes: cyclophilin D (mitochondrial peptidyl-prolyl cis-trans isomerase F), human, full length recombinant protein; The His tag and 'full length' are stated only in the co-immunoprecipitation methods; also called cypD; PPIF; source: bought: Fitzgerald (Fitzgerald Industries International), recombinant
As a reminder, the Kd is the equilibrium constant for the complex coming apart. By koff is commonly meant the first-order rate constant of dissociation. Turning to B1, the equilibrium dissociation constant (Kd) was found to be 0.35 nM and the dissociation rate constant (koff) came to 5.8e-05 s⁻¹.
